Test results as given in US20250066826A1, “ARTIFICIAL SYNTHESIS METHOD FOR MALONYL-COENZYME A (COA) AND USE THEREOF” (SHANGHAI JIAO TONG UNIVERSITY, priority 2023, published 2025).

Tests used:
Format in all cases: biochemical
[1] = Transaminase activity test using oxaloacetic acid as a substrate; details: 5 mM oxaloacetic acid, 5 mM β-alanine, 10 M purified transaminase, 10 M MCR-C, pH 7.8, 37° C.
[2] = Transaminase activity test using pyruvic acid as a substrate (coupled with MCR-C, NADPH at 340 nm); details: 5 mM pyruvic acid, 5 mM β-alanine, 2.5 mM NADP+, 2.5 mM CoA, 1 M purified transaminase, 10 M MCR-C, pH 7.8, 37° C.
From the text: It can be seen that the BauA has the best effect (FIG. 4A).

[3] = Transaminase activity test using α-ketoglutaric acid as a substrate; details: 5 mM α-ketoglutaric acid, 5 mM β-alanine, 10 M purified transaminase, 10 M MCR-C, pH 7.8, 37° C.
[4] = Oxidoreductase activity test (coupled with BauA, increase at 340 nm); details: 1 M purified oxidoreductase, 37° C.; for activity of the target enzyme (in words): in-vitro reaction with 10 M BauA
Experimental: Oxidoreductase activity test: in-vitro reaction was carried out in a total reaction volume of 200 μL, containing 100 mM Tris buffer (pH 7.8), 2 mM MgCl2, 3 mM DTT, 5 mM pyruvic acid, 5 mM 3-alanine, 2.5 mM NADP^+, 2.5 mM CoA, 10 M BauA, and 1 M purified oxidoreductase, the reaction mixture was cultured at 37° C., and the increase in 340 nm was monitored.

B1: AptA: transaminase from Acinetobacter pittii, SEQ ID NO: 8 (protein)
chain: MVMFDTDKFSDSEHTLDAVQPNNNMYINYQAHWMPFSANRNFAKDPRMIVGAKGSYLIDDSGREIYDSLSGLWTCGAGHTLPEIQQAVSAQLGQLDYSPAFQFGHPLSFKLADKIVQHMPEKLQHVFFTNSGSESADTAIKMARAYWRIKGKPSKTKLIGRARGYHGVNVAGTSLGGIGGNRKMFGQLMDVDHLPHTLQPNLTFTKGCAETGGVELANEMLKLIELHDASNIAAVIVEPISGSAGCIVPPTGYLQRLREICDQHDILLIFDEVITGFGRLGTWTGAEYFGVTPDILNFAKQVTNGAIPLGGVVASHEIYSAFMQQELPEHAIEFTHGYTYSAHPVACAAALAALEVLEKKNLLAQSAALAPSFEKMLHGLKGAPHVLDIRNCGLIGALQLAPRDGDATIRGFELGMKLWKEGFYVRFGGDTLQFGPMFNGTEADIDRLMNAVGDALYQVN
modifications: The sequence is synthetized.
activity of the transaminases [1]: 0.42 µmol/min/mg | activity of the transaminases [2]: 0.90 µmol/min/mg

B2: PydD2: transaminase from Bacillus megaterium, SEQ ID NO: 10 (protein)
chain: MVQVSQNEKDLRAKDEQYVWHGMKPYSPDATMVATKAKGAWITDEQGNRYLDAMAGLWCVNTGYGRDELALAAYEQLKELAYFPLTQSHVPAIKLAEKLNEMLGDDYVIFFSNSGSEANETAFKIVRQYHQQKGEHSRYKFISRYRGYHGNSMGALAATGQAQRKYKYEPLAPGFIHVAPPDSYRGQDDYDAPKEQLQSVKDIDNVMTWELSETIAAVIMEPIITGGGILLPPQNYMKGVKETCEKHGALLIADEVICGFGRTGEAFGFMNYDVKPDIITMAKGITSAYLPLSATAVKKEIYEAFKDSDQYEYFRHVNTFGGSPAACALALKNLEIMERENLFDRSKQLGAYVLSELTPLIDSHPYVGDVRGKGLLIGIELVADKQTKEPLDVNLVNEVVAKCKSKGVIIGKNGATVAGYNNVLTLSPPLNIEESDIELLLATITYALDSIK
modifications: The sequence is synthetized.
activity of the transaminases [1]: 0.49 µmol/min/mg | activity of the transaminases [2]: 0.96 µmol/min/mg

B3: Pyd4: transaminase from Saccharomyces kluyveri, SEQ ID NO: 72 (protein)
chain: MPSYSVAELYYPDEPTEPKISTSSYPGPKAKQELEKLSNVFDTRAAYLLADYYKSRGNYIVDQDGNVLLDVYAQISSIALGYNNPEILKVAKSDAMSVALANRPALACFPSNDYGQLLEDGLLKAAPQGQDKIWTALSGSDANETAFKACFMYQAAKKRNGRSFSTEELESVMDNQLPGTSEMVICSFEKGFHGRLFGSLSTTRSKPIHKLDIPAFNWPKAPFPDLKYPLEENKEANKAEESSCIEKFSQIVQEWQGKIAAVIIEPIQSEGGDNHASSDFFQKLREITIENGILMIVDEVQTGVGATGKMWAHEHWNLSNPPDLVTFSKKFQAAGFYYHDPKLQPDQPFRQFNTWCGDPSKALIAKVIYEEIVKHDLVTRTAEVGNYLFNRLEKLFEGKNYIQNLRGKGQGTYIAFDFGTSSERDSFLSRLRCNGANVAGCGDSAVRLRPSLTFEEKHADVLVSIFDKTLRQLYG
modifications: The sequence is synthetized.
activity of the transaminases [3]: 1.15 µmol/min/mg

B4: BauA: transaminase from Pseudomonas aeruginosa, amino acid sequence SEQ ID NO: 7 (protein)
chain: MNQPLNVAPPVSSELNLRAHWMPFSANRNFQKDPRIIVAAEGSWLTDDKGRKVYDSLSGLWTCGAGHSRKEIQEAVARQLGTLDYSPGFQYGHPLSFQLAEKIAGLLPGELNHVFFTGSGSECADTSIKMARAYWRLKGQPQKTKLIGRARGYHGVNVAGTSLGGIGGNRKMFGQLMDVDHLPHTLQPGMAFTRGMAQTGGVELANELLKLIELHDASNIAAVIVEPMSGSAGVLVPPVGYLQRLREICDQHNILLIFDEVITAFGRLGTYSGAEYFGVTPDLMNVAKQVTNGAVPMGAVIASSEIYDTFMNQALPEHAVEFSHGYTYSAHPVACAAGLAALDILARDNLVQQSAELAPHFEKGLHGLQGAKNVIDIRNCGLAGAIQIAPRDGDPTVRPFEAGMKLWQQGFYVRFGGDTLQFGPTFNARPEELDRLFDAVGEALNGIA
modifications: The sequence is synthetized.
activity of the transaminases [1]: 0.46 µmol/min/mg | activity of the transaminases [2]: 1.60 µmol/min/mg

B5: CCNA_03245: transaminase from Caulobacter vibrioides, SEQ ID NO: 9 (protein)
chain: MLPMPDFGANDLDAFWMPFTPNRRFKRHPRMLSSASGMWYRTPESREVLDATSGLWCVNAGHDRPKIREAIQKQAAEMDYAPCFNMGHPLAFQFASRLAQITPKGLDRIFFTNSGSESVDTALKIALAYHRARGKGTKTRLIGRERGYHGVGFGGISVGGIPKNRMYFGSLLTGVDHLPHTHGLPGNTCAKGQPENGAHLADDLERIVALHDASNIAAVIVEPVAGSTGVLIPPKGYLERLRAICDKHDILLIFDEVITGFGRVGAPFAAERFGVTPDLICMAKGLTNAAVPCGAVAASGKIYDAMMDGADAPIELFHGYTYSAHPLACAAGLATLETYREDDLFARAAGLEGYWQDAMHSLADARHVVDVRNLGLVAGIELEPRPGAPTARAMEVFETCFDEGLLIRVTGDIIALSPPLILEKDHIDRMVETIRRVLGQVD
modifications: The sequence is synthetized.
activity of the transaminases [2]: 0.13 µmol/min/mg

B6: Msed_0709: oxidoreductase from Metallosphaera sedula, SEQ ID NO: 13 (protein)
chain: MRRTLKAAILGATGLVGIEYVRMLADHPYIKPTYLAGKGSVGKPYGEIVRWQTVGNVPKEVANQEVKPTDPKLMDDVDIIFSPLPQGAAGPVEEQFAKLGFNVISNSPDHRFDMDVPMIIPEVNPHTVTLIDEQRKRRDWKGFIVTTPLCTAQGAAIPLTPIYQNFKMSGVMITTMQSLSGAGYPGIASLDIVDNALPLGDGYDAKTVKEITRILSEVKRNVQEPGVNEITLDATTHRIATIHGHYEVAYVTFKEDTDVRKVMESMESFKGEPQDLKLPTAPEKPIIVTTQDARPQVFFDRWAGNPPGMSVVVGRLKQVNPRTIRFVSLIHNTVRGAAGGGVLTAELLVEKGYIDKR
modifications: The sequence is synthetized.
activity of the target enzyme (in words) [4]: exhibit the activity of the target enzyme

B7: MCR-C: oxidoreductase (malonyl-CoA reductase) from Chloroflexus aurantiacu, SEQ ID NO: 70 (protein)
chain: SATTGARSASVGWAESLIGLHLGKVALITGGSAGIGGQIGRLLALSGARVMLAARDRHKLEQMQAMIQSELAEVGYTDVEDRVHIAPGCDVSSEAQLADLVERTLSAFGTVDYLINNAGIAGVEEMVIDMPVEGWRHTLFANLISNYSLMRKLAPLMKKQGSGYILNVSSYFGGEKDAAIPYPNRADYAVSKAGQRAMAEVFARFLGPEIQINAIAPGPVEGDRLRGTGERPGLFARRARLILENKRLNELHAALIAAARTDERSMHELVELLLPNDVAALEQNPAAPTALRELARRFRSEGDPAASSSSALLNRSIAAKLLARLHNGGYVLPADIFANLPNPPDPFFTRAQIDREARKVRDGIMGMLYLQRMPTEFDVAMATVYYLADRVVSGETFHPSGGLRYERTPTGGELFGLPSPERLAELVGSTVYLIGEHLTEHLNLLARAYLERYGARQVVMIVETETGAETMRRLLHDHVEAGRLMTIVAGDQIEAAIDQAITRYGRPGPVVCTPFRPLPTVPLVGRKDSDWSTVLSEAEFAELCEHQLTHHFRVARWIALSDGARLALVTPETTATSTTEQFALANFIKTTLHAFTATIGVESERTAQRILINQVDLTRRARAEEPRDPHERQQELERFIEAVLLVTAPLPPEADTRYAGRIHRGRAITV
modifications: The sequence is synthetized.
oxidoreductase activity ([4]; 5 mM pyruvic acid, 5 mM alanine, 2.5 mM NADP+, 2.5 mM CoA, 10 M BauA): 2.0 µmol/min/mg | activity of the target enzyme (in words) [4]: exhibit the activity of the target enzyme

B8: pydD: transaminase from Ureibacillus massiliensis, SEQ ID NO: 71 (protein)
chain: MSDYLSIKEQDKQYVLHSWAKQGSFNPKVIAKAEGVCFWDDAGNRYFDMSSQLVYVNVGHQHPKVLKAFQEIGTYPLAGPSFATKPKSDLSQRIIELAPSNMAKVFYTSGGAEANDHAVKIARMVSGRYKIFSRYRSYHGATFGAGNLTGESRRFAAEPGLPGFVKFEVPYLYREVIDFDSEEAATAYYLGKLRNQILYEGSDTIAAIFIEPIPGSNGVLIPPKGYLEGVRALCDEFGILMICDEVMTGFGRTGKGFAVDHYDFKPDIMTFAKGVTSGYAPLGGVIISEDISRFFDENVLMTGLTYSGHTMCTQIGVANLEVYEEENIFENAEKMGILLKQRLEKLLTFPSIGEIRSIGLFAGVELVKDKATKEPIIQYGLDYGKDPVGLMNKFISMLSANGFYTYSHESTVIIAPPLIITEEQINEAMDIFESTLKQFEKEGLFPEETLSV
modifications: The sequence is synthetized.
activity of the transaminases [3]: 0.825 µmol/min/mg

B9: YhxA: transaminase from Bacillus cereus, SEQ ID NO: 11 (protein)
chain: MELMIVQVTEQTQSLKKTDEKYLWHAMRGAAPSPTNLIITKAEGAWVTDIDGNRYLDGMSGLWCVNVGYGRKELARAAFEQLEEMPYFPLTQSHVPAIKLAEKLNEWLDDEYVIFFSNSGSEANETAFKIARQYHQQKGDHGRYKFISRYRAYHGNSMGALAATGQAQRKYKYEPLGQGFLHVAPPDTYRNPEDVHTLASAEEIDRVMTWELSQTVAGVIMEPIITGGGILMPPDGYMEKVKEICEKHGALLICDEVICGFGRTGKPFGFMNYGVKPDIITMAKGITSAYLPLSATAVRREVYEAFVGSDDYDRFRHVNTFGGNPAACALALKNLEIMENEKLIERSKELGERLLYELEDVKEHPNVGDVRGKGLLLGIELVEDKQTKEPASIEKMNKVINACKEKGLIIGKNGDTVAGYNNILQLAPPLSITEEDFTFIVKTMKECLAQL
modifications: The sequence is synthetized.
activity of the transaminases [2]: 0.15 µmol/min/mg
